Data: PMC9433928
Where two headings read alike, the source gives them in different places.

Assays:
[1] = target: GFP10-tagged constitutively active RHOA L63 mutant (UniProt P61586); test: split reporter (BiFC, NanoBiT); tripartite split-GFP: GFP10-GTPase mutant and GFP11-tagged partner co-transfected in MRC5 cells stably expressing GFP1-9; fixed 20 h after transfection; percent of reconstituted GFP (rGFP) positive cells by flow cytometry
[2] = target: GFP10-tagged constitutively active RHOA L63 mutant (UniProt P61586); test: as above; remark: listed apart in the source
[3] = target: GFP10-RHOA of the triSFP-RHOA reporter cells (UniProt P61586); test: split reporter (BiFC, NanoBiT); intracellular competition in triSFP-RHOA cells (MRC5_GFP1-9 with doxycycline-induced GFP10-RHOA and GFP11-RBD); mCherry fusions transfected; rGFP fluorescence by flow cytometry in quartiles of mCherry expression
[4] = target: GFP10-tagged constitutively active CDC42 L61 mutant (UniProt P60953); test: split reporter (BiFC, NanoBiT); tripartite split-GFP: GFP10-GTPase mutant and GFP11-tagged partner co-transfected in MRC5 cells stably expressing GFP1-9; fixed 20 h after transfection; percent of reconstituted GFP (rGFP) positive cells by flow cytometry
[5] = target: GFP10-tagged constitutively active RAC1 L61 mutant (UniProt P63000); test: as above

Chain of RHOTEKIN effector RHO Binding Domain (RBD) fused to a C-terminal GFP11 tag (domain or fragment) (Q8C6B2 whole entry, the tested form may be a part): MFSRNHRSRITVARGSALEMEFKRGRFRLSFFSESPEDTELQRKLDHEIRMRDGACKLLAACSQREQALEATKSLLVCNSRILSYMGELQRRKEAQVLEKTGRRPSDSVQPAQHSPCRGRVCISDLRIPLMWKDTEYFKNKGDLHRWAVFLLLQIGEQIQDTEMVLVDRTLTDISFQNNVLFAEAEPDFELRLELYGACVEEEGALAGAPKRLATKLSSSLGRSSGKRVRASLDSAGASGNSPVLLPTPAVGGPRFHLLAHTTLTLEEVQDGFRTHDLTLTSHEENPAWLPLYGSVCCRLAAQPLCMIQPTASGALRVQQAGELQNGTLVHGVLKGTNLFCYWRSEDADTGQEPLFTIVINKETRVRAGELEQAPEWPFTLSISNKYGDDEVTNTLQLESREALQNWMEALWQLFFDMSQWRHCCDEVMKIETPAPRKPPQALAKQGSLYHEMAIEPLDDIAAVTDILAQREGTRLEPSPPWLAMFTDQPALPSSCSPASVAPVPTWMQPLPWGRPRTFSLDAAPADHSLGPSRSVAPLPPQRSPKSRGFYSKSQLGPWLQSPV
Chain of GFP11 tagged PAK-BD (domain or fragment) (Q13153 2-545): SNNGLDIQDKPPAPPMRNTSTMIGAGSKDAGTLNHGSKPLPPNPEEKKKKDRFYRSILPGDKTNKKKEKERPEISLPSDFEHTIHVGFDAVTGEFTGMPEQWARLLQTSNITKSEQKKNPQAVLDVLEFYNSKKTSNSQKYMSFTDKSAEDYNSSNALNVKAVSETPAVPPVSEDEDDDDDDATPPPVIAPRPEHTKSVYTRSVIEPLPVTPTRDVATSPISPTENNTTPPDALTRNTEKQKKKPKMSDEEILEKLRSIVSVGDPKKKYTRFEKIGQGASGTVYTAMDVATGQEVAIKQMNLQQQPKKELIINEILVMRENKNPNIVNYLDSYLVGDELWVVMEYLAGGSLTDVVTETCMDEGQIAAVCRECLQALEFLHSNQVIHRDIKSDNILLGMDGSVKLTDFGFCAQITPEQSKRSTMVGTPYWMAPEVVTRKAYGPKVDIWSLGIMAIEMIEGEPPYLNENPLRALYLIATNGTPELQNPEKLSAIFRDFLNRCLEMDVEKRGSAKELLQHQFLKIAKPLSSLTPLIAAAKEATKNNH
Chain of GFP10-tagged constitutively active RHOA L63 mutant (P61586 other isoform, or with tags, fused parts or gaps mutant): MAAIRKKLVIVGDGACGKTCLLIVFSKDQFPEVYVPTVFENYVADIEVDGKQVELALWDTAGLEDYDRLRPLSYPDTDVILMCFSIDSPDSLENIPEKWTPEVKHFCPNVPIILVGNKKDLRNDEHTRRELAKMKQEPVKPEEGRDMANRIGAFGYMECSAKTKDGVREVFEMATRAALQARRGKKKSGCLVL
Chain of GFP10-RHOA of the triSFP-RHOA reporter cells (P61586 whole entry, the tested form may be a part): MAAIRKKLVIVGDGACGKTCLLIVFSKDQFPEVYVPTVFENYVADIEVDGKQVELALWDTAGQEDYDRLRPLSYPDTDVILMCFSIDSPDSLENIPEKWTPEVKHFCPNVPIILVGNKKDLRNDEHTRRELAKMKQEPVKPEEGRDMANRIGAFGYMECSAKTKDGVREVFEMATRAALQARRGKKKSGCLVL
Chain of GFP10-tagged constitutively active CDC42 L61 mutant (P60953 other isoform, or with tags, fused parts or gaps mutant): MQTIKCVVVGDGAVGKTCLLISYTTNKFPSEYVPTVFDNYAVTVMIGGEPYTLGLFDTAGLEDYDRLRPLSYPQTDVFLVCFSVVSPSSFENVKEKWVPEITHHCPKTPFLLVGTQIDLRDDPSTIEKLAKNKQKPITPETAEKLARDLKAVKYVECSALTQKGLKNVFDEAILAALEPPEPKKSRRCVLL

Work on “RHOTEKIN effector RHO Binding Domain (RBD) fused to a C-terminal GFP11 tag (domain or fragment)” yielded a percent rGFP positive cells [1] of 25% and a percent rGFP positive cells [2] of 28%.
In the case of RBD-mCherry (domain or fragment), the percent decrease of rGFP fluorescence (competition with GFP11-RBD) [3] is reported as 20%.
“GFP11 tagged PAK-BD (domain or fragment)” was tested, and the percent rGFP positive cells [4] was 11.8% and the percent rGFP positive cells [5] was 9.9%.
